Reference: the supplement of paper PMC10567573

B1: NET1 (parent)
chain: IKRTIRVLDVNNQSFREQEEPSNK

Variants of: B1
Assay: protein stability index of a GFP-peptide fusion (GPS, HEK-293T) (PSI 1-6); higher = more stable
Settings: c terminus: a fixed tail appended
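Note: lentivirally expressed fusions sorted by FACS into six bins by GFP to DsRed ratio, PSI derived from sequencing read proportions per bin multiplied by bin number.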

Protein stability index of substitutions, site by site:
E17: K 3.11 | A 3.6 | G 3.29 | L 3.15 | F 2.8 | H 3.59 | C 3.27 | I 3.22 | N 3.16 | S 3.16 | D 3.25 | Q 3.14 | M 2.92 | R 3.42 | T 3.03 | P 2.92
F15: N 3.82 | P 4.67 | W 3.6 | R 4.79 | S 4.3 | M 3.98 | A 4.27 | D 4.86 | L 3.4 | T 4.09 | I 3.96 | E 4.79 | Q 4.29 | C 4.18
N11: T 3.41 | D 4.47 | E 4.51 | Q 4.34 | H 3.62 | R 4.41 | Y 4.06 | S 4.22 | V 3.56 | L 2.26 | K 4.44 | I 1.85
E19: H 2.9 | Y 2.43 | N 2.89 | D 2.84 | V 2.68 | Q 2.76 | P 3.44 | K 3.88 | M 3.15 | R 2.6 | W 1.75 | L 2.27 | S 2.44 | F 2.15 | C 2.74 | G 4.21 | T 3.34
R6: K 4.04 | I 1.99 | Q 4.16 | W 2.42 | P 4.87 | S 4.23 | C 3.35 | V 2.77 | D 4.77 | G 4.51 | E 4.65 | M 3.32 | T 3.92 | A 2.88 | Y 2.35
I1: H 4.81 | T 4.49 | A 3.82 | F 4.03 | D 4.58 | R 3.73 | Q 3.69 | C 4.76 | V 3.54 | M 3.63 | K 4.14 | W 3.45
L8: P 4.93 | E 5.07 | F 3.83 | R 4.68 | G 4.99 | Y 3.96 | W 3.39 | S 4.44 | C 4.93 | K 4.46 | V 3.94 | N 4.57 | I 2.96
P21: M 3.11 | Y 3.78 | V 3.22 | T 3.57 | E 3.36 | H 3.75 | C 3.54 | W 3.12 | K 4.15 | D 3.97 | A 3.29 | F 2.35 | R 3.68 | L 3.93 | S 4.27 | Q 3.34
I5: Q 5.04 | C 4.41 | N 4.08 | K 4.75 | H 4.69 | R 4.82 | D 4.91 | W 3.31 | A 4.53 | F 3.39 | S 4.56 | T 5.1
S22: W 1.92 | Q 2.8 | G 2.49 | I 3.28 | K 3.87 | P 3.64 | A 3.04 | R 3.85 | M 4.02 | D 3.99 | F 2.55 | Y 3.34 | E 3.42 | H 3.83 | N 3.97 | C 3.59 | L 2.64 | V 3.23
Q13: W 2.51 | H 3.28 | V 3.67 | F 2.72 | I 2.99 | R 3.27 | C 3.01 | E 4.26 | P 3.35 | K 3.7 | N 3.69 | A 4.18 | L 2.33 | D 3.56 | G 3.8 | S 4.19
D9: A 3.31 | K 4.44 | P 4.36 | M 1.91 | G 3.7 | E 3.91 | T 2.9 | N 4.11 | H 4.23 | Y 2.41 | W 2.89 | L 1.77 | S 3.5 | I 1.58 | Q 3.26
T4: M 3.3 | C 3.51 | P 3.89 | Q 3.86 | E 4.96 | K 3.75 | S 4.09 | L 2.59 | Y 3.09
R3: L 1.9 | I 1.37 | M 2.08 | G 4.1 | E 4.92 | Q 4.44 | P 4.57 | F 1.75 | W 1.49 | A 3.48 | S 4.71
N23: P 2.87 | D 4.51 | V 4.04 | I 3.94 | F 2.96 | K 3.56 | H 2.28 | G 3.56 | Q 3.65 | S 3.97 | C 3.8 | E 3.96 | L 3.16
V7: G 3.92 | K 4.37 | C 3.62 | H 4.25 | N 4.5 | P 4.22 | S 4.28 | T 4.21 | D 4.53 | W 2.41 | Y 3.04 | E 3.74 | L 3.46 | R 3.71 | M 3.27
E20: I 3.37 | L 3.16 | M 3.16 | S 3.57 | N 3.52 | V 3.04 | G 3.19 | H 3.05 | T 3.41 | W 2.31 | P 3.33 | C 3.27 | K 2.9
R16: Q 3.43 | L 3.35 | V 3.96 | P 3.42 | E 3.94 | T 3.85 | I 3.83 | G 3.94 | F 3.47 | N 4.57 | S 4.06 | M 3.41 | Y 3.4
V10: H 4.23 | Q 4.03 | S 3.85 | L 3.85 | F 3.19 | R 4.04 | T 4.23 | G 4.22 | E 4.79 | M 4 | K 4.35 | D 4.83 | I 3.87 | P 3.21
S14: W 3.01 | D 3.68 | G 4.17 | L 2.62 | A 3.02 | K 3.24 | N 3.47 | Y 2.6 | P 2.9 | F 2.56 | C 3.27 | M 3.21 | I 3.64 | T 3.52 | Q 3.91 | V 3.47
K2: R 2.93 | N 4.34 | Y 2.6 | I 3.05 | F 3.04 | P 4.47 | V 3.33 | C 4.05 | T 4.8 | D 4.83 | S 3.29 | Q 4.63
N12: R 3.14 | A 3.38 | M 3.29 | K 2.72 | L 3.25 | D 4.21 | F 2.7 | I 3.51 | V 2.97 | T 3.3 | Q 4.08 | S 2.82 | C 3.16 | Y 3.21
Q18: V 3.43 | S 2.79 | I 3.1 | C 3.09 | H 3.7 | G 3.59 | T 3.37 | L 3.06 | E 3.76 | D 4.15 | R 3.1 | M 3.07 | Y 2.66 | N 3.52 | A 2.27
K24: D 3.79 | W 2.61 | I 3.29 | V 3.73 | H 4.11 | T 4 | E 4.37 | Y 3.61 | L 4.23 | F 2.98 | A 3.46 | R 3.52 | N 3.99
